Test results: patent US20190000984A1

Target: IL-4R (interleukin-4 receptor) (UniProt P24394)
Assay: cell-based or functional assay

B1: anti-IL-4R:anti-CD63 conjugate (streptavidin-conjugated anti-IL-4R antibody combined 1:1 with biotinylated anti-CD63 antibody MEM-259) (protein, part only; not given: anti-CD63 antibody and constant regions, part only)
VH: EVQLVESGGGVVQPGRSLRLSCVASGFTFSDYGMHWVRQAPGKGLEWVAVIWYDGSIKYFRDSVKGRFTISRDNSKNTLYLQMNSLRVEDTAHYYCAKESSSWYFYHGLDVWGQGTMVTVSS
VL: EIVMTQSPLSLPVSPGEPASISCRSNQSLLHSNGNNYLAWYLQKPGQSPHLLIYLGSNRASGVPDRFSGSGSGTDFTLKISRVEAGDVGTYFCMQSLQAPPFTFGPGTKVEIKR
modifications: antibody conjugated to streptavidin (site not stated)
Work on B1 yielded an attenuation of IL-4R activity against the control constructs (STAT6-luciferase) greater than 10%.
